These results are taken from US20240117030A1 (Pfizer, published 2024).

One assay concerns the target human IL-13 (human, UniProt P35225 35-146). Nature of the assay: cell-based or functional assay.
The next assay addresses T1, human IL-4 (human, UniProt P05112 25-153).
T1 sequence (looked up): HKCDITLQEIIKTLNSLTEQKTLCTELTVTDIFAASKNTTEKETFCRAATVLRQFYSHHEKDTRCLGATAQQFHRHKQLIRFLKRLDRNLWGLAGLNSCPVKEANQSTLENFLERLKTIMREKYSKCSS
Nature of the assay: cell-based or functional assay.

Sequence of human IL-13 (P35225 35-146 limits assumed): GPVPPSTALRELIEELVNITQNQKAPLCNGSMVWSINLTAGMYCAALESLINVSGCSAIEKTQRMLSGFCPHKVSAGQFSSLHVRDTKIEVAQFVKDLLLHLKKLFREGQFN

B1: IL13-0001 (antibody, human IgG1, kappa, V domains shown)
VH: EVQLVESGGGLVQPGGSLRLSCAASGFTFSSYAMSWVRQAPGKGLEWVASISSGDTTYYPDSVKGRFTISRDNAKNSLYLQMNSLRAEDTAVYYCARNEGYYFGLTLWGQGTLVTVSS
VL: DIQMTQSPSSLSASVGDRVTITCKASESVDHFGWSLVHWYQQKPGKAPKLLIYRASNLESGVPSRFSGSGSGTDFTLTISSLQPEDFATYYCQQSNEDPWTFGGGTKVEIKR
Regarding B1, the “a-hIL-13 bioassay (IC50, pM)” value in the assay with human IL-13 was found to be 5.79 pM.

B2: IL4-0002 (antibody, human IgG1, kappa)
heavy: EVTLRESGPALVKPTQTLTLTCTFSGFSLSNFGEGLSWIRQPPGKGLEWLAHIYWDDDKRYNPSLKSRLTISKDTSRNQVVLTMTNMDPVDTATYYCARRETVFYWYFDVWGQGTTVTVSSASTKGPSVFPLAPSSKSTSGGTAALGCLVKDYFPEPVTVSWNSGALTSGVHTFPAVLQSSGLYSLSSVVTVPSSSLGTQTYICNVNHKPSNTKVDKKVEPKSCDKTHTCPPCPAPEAAGAPSVFLFPPKPKDTLMISRTPEVTCVVVDVSHEDPEVKFNWYVDGVEVHNAKTKPREEQYNSTYRVVSVLTVLHQDWLNGKEYKCKVSNKALPAPIEKTISKAKGQPREPQVYTLPPSREEMTKNQVSLTCLVKGFYPSDIAVEWESNGQPENNYKTTPPVLDSDGSFFLYSKLTVDKSRWQQGNVFSCSVMHEALHNHYTQKSLSLSPGK
light: DIQMTQSPSSLSASVGDRVTITCKASQSVDEDGDSYMNWYQQKPGKAPKLLIYAASNLESGVPSRFSGSGSGTDFTLTISSLQPEDFATYYCQQSNEDPPTFGGGTKVEIKRTVAAPSVFIFPPSDEQLKSGTASVVCLLNNFYPREAKVQWKVDNALQSGNSQESVTEQDSKDSTYSLSSTLTLSKADYEKHKVYACEVTHQGLSSPVTKSFNRGEC
Take B2: the “a-hIL-4 bioassay IC50, pM)” value with human IL-4 turned out to be 2.39 pM.
